These results are taken from article doi:10.1101/2021.10.01.462762 (bioRxiv, 2021).

Data set [1] deals with Cra (Escherichia coli, UniProt P0ACP1 1-334). The experiment in a line: EMSA. Background: In EMSA bound probe runs differently from free probe, usually more slowly.
Data set [2] concerns the target PdeL;Cra (Escherichia coli;Escherichia coli, UniProt P21514;P0ACP1 1-362;1-334, |). The experiment in a line: EMSA.
Data set [3] deals with the molecule itself. The data set is described as follows: SEC-MALS. For orientation: SEC sorts molecules by how far they enter the pores of the column.
Data set [4] concerns the molecule itself. The data set is described as follows: mass photometry.
Data set [5] concerns the molecule itself. The experiment in a line: MST.

Usually Kd stands for a measure of binding affinity in units of concentration. High values mean lower affinity, low ones higher affinity. As a reminder, the stoichiometry N is a count of units in the complex or per binding partner.

Cra, sequence (P0ACP1 whole entry): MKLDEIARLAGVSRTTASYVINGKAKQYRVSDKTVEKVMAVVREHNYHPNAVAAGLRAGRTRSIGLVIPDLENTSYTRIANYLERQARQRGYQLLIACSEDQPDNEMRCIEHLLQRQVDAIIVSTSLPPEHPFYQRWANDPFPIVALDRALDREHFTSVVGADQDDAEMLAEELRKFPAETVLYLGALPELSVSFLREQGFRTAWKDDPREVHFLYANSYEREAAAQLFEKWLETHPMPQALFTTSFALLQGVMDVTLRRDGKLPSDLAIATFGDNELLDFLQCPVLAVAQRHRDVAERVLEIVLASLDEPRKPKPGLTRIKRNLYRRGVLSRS
PdeL;Cra, sequence (P0ACP1 whole entry, chain 2 of 2, one chain of several): as the sequence (P0ACP1 whole entry) above

B1: CB CDB oligo (4695/4696) (dsDNA)
DNA 1: TGCTGAATGGATTCAGTCTTAATGAGTGGG
DNA 2: CCCACTCATTAAGACTGAATCCATTCAGCA
Regarding B1, the dissociation constant (Kd) in data set [1] was found to be 0.049 µM; in data set [2], 0.076 µM.

B2: PdeL, full-length c-di-GMP phosphodiesterase and transcription factor of E. coli (enzyme, UniProt P21514 1-362, looked up)
chain: MNSCDFRVFLQEFGTTVHLSLPGSVSEKERLLLKLLMQGMSVTEISQYRNRSAKTISHQKKQLFEKLGIQSDITFWRDIFFQYNPEIISATGSNSHRYINDNHYHHIVTPEAISLALENHEFKPWIQPVFCAQTGVLTGCEVLVRWEHPQTGIIPPDQFIPLAESSGLIVIMTRQLMKQTADILMPVKHLLPDNFHIGINVSAGCFLAAGFEKECLNLVNKLGNDKIKLVLELTERNPIPVTPEARAIFDSLHQHNITFALDDFGTGYATYRYLQAFPVDFIKIDKSFVQMASVDEISGHIVDNIVELARKPGLSIVAEGVETQEQADLMIGKGVHFLQGYLYSPPVPGNKFISEWVMKAGG
In the case of B2, the “stoichiometry N” value came to 4 in data set [3] and 2 in data set [4]. In data set [5], the Kd turned out to be 9 µM.

B3: PdeL L168R, tetramerization-deficient variant (enzyme, E. coli)
chain: NSCDFRVFLQEFGTTVHLSLPGSVSEKERLLLKLLMQGMSVTEISQYRNRSAKTISHQKKQLFEKLGIQSDITFWRDIFFQYNPEIISATGSNSHRYINDNHYHHIVTPEAISLALENHEFKPWIQPVFCAQTGVLTGCEVLVRWEHPQTGIIPPDQFIPLAESSGRIVIMTRQLMKQTADILMPVKHLLPDNFHIGINVSAGCFLAAGFEKECLNLVNKLGNDKIKLVLELTERNPIPVTPEARAIFDSLHQHNITFALDDFGTGYATYRYLQAFPVDFIKIDKSFVQMASVDEISGHIVDNIVELARKPGLSIVAEGVETQEQADLMIGKGVHFLQGYLYSPPVPGNKFISEWVMKAGG
Consider B3, for which, in data set [3], the “stoichiometry N” value is 2.
